Target: C-X-C motif chemokine receptor 4 (CXCR4) (human (endogenous in primary CD4+ T cells)) (UniProt P61073)
UniProt P61073, sequence (P61073 whole entry): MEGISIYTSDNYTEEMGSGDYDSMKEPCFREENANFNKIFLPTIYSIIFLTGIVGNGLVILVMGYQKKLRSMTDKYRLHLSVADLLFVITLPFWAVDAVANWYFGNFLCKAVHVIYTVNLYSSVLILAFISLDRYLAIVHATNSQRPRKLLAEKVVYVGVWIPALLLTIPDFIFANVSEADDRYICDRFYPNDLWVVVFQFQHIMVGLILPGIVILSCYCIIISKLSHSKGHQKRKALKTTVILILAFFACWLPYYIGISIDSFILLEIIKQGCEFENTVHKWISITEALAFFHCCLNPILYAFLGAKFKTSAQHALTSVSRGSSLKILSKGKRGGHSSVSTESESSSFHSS

Substance: stromal cell-derived factor-1 (SDF-1) (from UniProt P48061 22-93) (ligand)
- median fluorescence intensity of MitoTracker Deep Red-labelled mitochondria on CD4+ T cells after 2 h co-culture, with 20 µg/mL blocking SDF-1 Ab; flow cytometry: 21.1
- median fluorescence intensity of MitoTracker Deep Red-labelled mitochondria on CD4+ T cells after 2 h co-culture, without SDF-1 Ab; flow cytometry: 44.8
